Test results from the supplement of paper PMC7125110.
± gives the standard error. Variants at the floor of the assay were thinned out.

B1: glmS ribozyme (parent)
chain: AUAAAAGCGCCAGAACUACAGAAAUGUAGUUGACGAGGAGGAGGUUUAUCGAAUUUUCGGCGGAUGCCUCCAAA

Variants of: B1
Experiment: self-cleavage kobs at 2500 uM GlcN6P; higher = faster cleavage; RNA array
Settings: with glucosamine-6-phosphate
How it was run: (§1)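 A hybridised Cy3 probe tracked barcoded ribozyme variants, transcribed in situ by E. coli RNA polymerase on sequenced MiSeq chips, at 37 °C. The variants received 40 μM to 10 mM glucosamine-6-phosphate in HEPES/KCl/Mg(OAc)2 buffer. kobs came from decay fits and kcat and KM from weighted Michaelis–Menten fits.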

Row | Variant | self-cleavage kobs at 2500 uM GlcN6P
1 | C10U A12U G63C C70A C71A | 5.29e-05 ± 1.7e-05 s⁻¹
2 | C11U A12G C16U G40A C68U | < 1e-05 s⁻¹
3 | A12G G59C C67U | 4.19e-05 ± 1.9e-05 s⁻¹
4 | A12C A42U C67U | 7.04e-05 ± 1.6e-05 s⁻¹
5 | G9U C10U C34U U46A | < 1e-05 s⁻¹
6 | G9C A12C A42C | < 1e-05 s⁻¹
7 | C10A A53U G60U | 8.13e-05 ± 1.6e-05 s⁻¹
8 | C11G G35C U45G C67A | < 1e-05 s⁻¹
9 | G7U C34U G60U A64G | < 1e-05 s⁻¹
10 | G9C G38A A52U | < 1e-05 s⁻¹
11 | C10U A36U G41U A42G U54G G59C | < 1e-05 s⁻¹
12 | G9C U30A G44U G59U C61U G66C C70U | < 1e-05 s⁻¹
13 | C10U G29C A36G G41U U54A | < 1e-05 s⁻¹
14 | G9U G66U U69G | < 1e-05 s⁻¹
15 | C8U G38C C61A | < 1e-05 s⁻¹
16 | G7U A12U G44U | < 1e-05 s⁻¹
17 | G7C G29U G32C A33G | < 1e-05 s⁻¹
18 | C10G C34G G51U | < 1e-05 s⁻¹
19 | C11U A52G C71A | 5.37e-05 ± 2.4e-05 s⁻¹
20 | G9U A36G U49A G62U C67U C70G | < 1e-05 s⁻¹

Row | Variant | self-cleavage kobs at 2500 uM GlcN6P
21 | C8G G35U A52G C61A | < 1e-05 s⁻¹
22 | A12G G44U G59C G60C | < 1e-05 s⁻¹
23 | A12G A15U U54C C67G | 5.41e-05 ± 1.9e-05 s⁻¹
24 | G7U G41A A64U | < 1e-05 s⁻¹
25 | C11U G29A U30G U55A G63C A64G | < 1e-05 s⁻¹
26 | C8A A39G A48U | < 1e-05 s⁻¹
27 | A12G G32U G40U | 0.000317 ± 0.00011 s⁻¹
28 | G7C A36G U55C | < 1e-05 s⁻¹
29 | G9U G35A G59A C71U | < 1e-05 s⁻¹
30 | G7C C11U U54A | < 1e-05 s⁻¹
31 | A12C C16U U57A | 4.57e-05 ± 1.5e-05 s⁻¹
32 | C11G G29C G37U A52C | < 1e-05 s⁻¹
33 | G9C C11U G29C G59C | < 1e-05 s⁻¹
34 | G9A G44U C68G C70G | < 1e-05 s⁻¹
35 | C8G A14G U55G C58U U65G | < 1e-05 s⁻¹
36 | C10U C11A G40A | < 1e-05 s⁻¹
37 | G9U A36G C61G C67U | < 1e-05 s⁻¹
38 | C11U C16G G32A A42U C70U | < 1e-05 s⁻¹
39 | G9U G29A A42G G60C | < 1e-05 s⁻¹
40 | C11U A42G C71U | 0.0013 ± 0.0004 s⁻¹

Variants of: B1
Experiment: self-cleavage kobs at 10000 uM GlcN6P; higher = faster cleavage; RNA array
Settings: with glucosamine-6-phosphate
How it was run: as §1

Row | Variant | self-cleavage kobs at 10000 uM GlcN6P
41 | G7U C34U G60U A64G | < 1e-05 s⁻¹
42 | G9C G38A A52U | < 1e-05 s⁻¹
43 | A12C C16U U57A | 0.000157 ± 3.4e-05 s⁻¹
